Measurements taken from paper doi:10.1101/2023.06.20.545120, “Magnetogenetic cell activation using endogenous ferritin” (bioRxiv, 2024).

Experiments:
mouse liver ferritin = target: T1, mouse liver ferritin (Mus musculus, UniProt P09528;P29391); test: ELISA; first-round screen: crude periplasmic extracts of the clones on coated human spleen ferritin or mouse liver ferritin; absorbance ratio greater than 2.5 selected; settings: one partner purified
T1 construct: ferritin heavy chain, mouse, as part of ferritin from liver; ferritin light chain, mouse, as part of ferritin from liver; Tissue ferritin is a shell of heavy and light chains; also called mouse ferritin; mouse ferritin purified from mouse liver; source: bought: Gentaur (purified from mouse liver)

[1] = target: T2, endogenous human ferritin of HEK-293T cells (Homo sapiens (HEK-293T, endogenous), UniProt P02794;P02792); test: affinity purification with mass spectrometry; the anti-HA immunoprecipitates of nanobody-HA-mCherry from HEK-293T with GFP-mFerritin; LC-MS/MS, abundance from peptides unique to mouse or human ferritin heavy chain; enrichment against cells with GFP-mFerritin alone; settings: partners not purified
T2 construct: ferritin heavy chain, human; the chain whose unique peptides were quantified; ferritin light chain, human; Only the heavy chain was measured; also called human ferritin heavy chain; FTH1_human

[2] = target: T3, GFP-tagged mouse ferritin (Mus musculus (ferritin moiety), UniProt P09528, chimera); test: as above; settings: partners not purified
T3 construct: green fluorescent protein, the N-terminal GFP moiety of GFP-mFerritin; the rest of the chimeric ferritin and its linkers; ferritin heavy chain, mouse; found by mass spectrometry as the mouse ferritin of the construct; Runs at about 71 kDa; also called GFP-mFerritin; GFP-ferritin

human spleen ferritin [3] = target: T4, human spleen ferritin (Homo sapiens, UniProt P02794;P02792); test: ELISA; first-round screen: crude periplasmic extracts of the clones on coated human spleen ferritin or mouse liver ferritin; absorbance ratio greater than 2.5 selected; settings: one partner purified
T4 construct: ferritin heavy chain, human, as part of ferritin from spleen; ferritin light chain, human, as part of ferritin from spleen; Tissue ferritin is a shell of heavy and light chains; also called human ferritin; source: bought: Lee Biosolutions (human spleen ferritin)

[4] = target: T3, GFP-tagged mouse ferritin; test: co-IP; HEK-293T co-transfected with nanobody-HA-mCherry and GFP-mFerritin; lysis buffer 50 mM Tris pH 7.5, 300 mM NaCl, 1% NP-40, 0.1% SDS; anti-HA agarose overnight at 4 °C; eluate on SDS-PAGE, Coomassie; settings: partners not purified
human spleen ferritin [5] = target: T4, human spleen ferritin; test: ITC; 10 uM human spleen ferritin in the cell, 75 uM NbFt2 in the syringe, 25 °C; MicroCal Auto-iTC200; settings: both partners purified

T2 sequence (P02794 whole entry, chain 1 of 2): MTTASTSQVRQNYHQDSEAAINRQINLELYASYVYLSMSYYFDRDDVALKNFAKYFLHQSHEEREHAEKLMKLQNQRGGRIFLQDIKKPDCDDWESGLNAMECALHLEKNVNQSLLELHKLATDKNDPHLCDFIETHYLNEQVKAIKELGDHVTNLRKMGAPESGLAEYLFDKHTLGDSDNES
T2 sequence (P02792 whole entry, chain 2 of 2): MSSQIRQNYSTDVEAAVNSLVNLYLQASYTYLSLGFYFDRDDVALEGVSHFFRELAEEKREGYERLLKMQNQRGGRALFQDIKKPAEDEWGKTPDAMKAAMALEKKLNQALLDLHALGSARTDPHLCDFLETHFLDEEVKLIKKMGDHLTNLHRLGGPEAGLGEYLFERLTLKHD
T4 sequence (P02794 whole entry, chain 1 of 2): as the sequence (P02794 whole entry, chain 1 of 2) above
T4 sequence (P02792 whole entry, chain 2 of 2): as the sequence (P02792 whole entry, chain 2 of 2) above
T1 sequence (P09528 whole entry, chain 1 of 2): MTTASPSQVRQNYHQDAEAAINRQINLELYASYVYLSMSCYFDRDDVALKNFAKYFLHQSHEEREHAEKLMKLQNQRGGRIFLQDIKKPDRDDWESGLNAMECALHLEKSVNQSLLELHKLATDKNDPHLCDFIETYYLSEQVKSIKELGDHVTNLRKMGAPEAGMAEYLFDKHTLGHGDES
T1 sequence (P29391 whole entry, chain 2 of 2): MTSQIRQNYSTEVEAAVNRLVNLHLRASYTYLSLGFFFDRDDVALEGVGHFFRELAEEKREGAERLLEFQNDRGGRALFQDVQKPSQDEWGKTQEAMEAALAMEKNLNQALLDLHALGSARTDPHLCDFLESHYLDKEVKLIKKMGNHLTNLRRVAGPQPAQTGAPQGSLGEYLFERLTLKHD

B1: anti-ferritin nanobody clone 17 (VHH)
VHH: QVQLQESGGGAVQAGGSLRLSCAASGLAFSSYGMGWFRQAPGKEREFVAAISWGDGTTNYADSVKGRLTISRDNARNTVYLQMNSLKVGDTAVYYCAAGLGAPRAVAGSFQHWGQGTQVTVSS
notes: The text calls the preparation partially purified; also called Nb-Ft clone 17; Nb-Ft-17; source: crude periplasmic extract of the phage display clone (pMECS); E. coli WK6, purified (periplasmic extract, cobalt IMAC)
- binding result (mouse liver ferritin): binds

B2: anti-ferritin nanobody clone 17 fused to HA-tagged mCherry (VHH)
VHH: QVQLQESGGGAVQAGGSLRLSCAASGLAFSSYGMGWFRQAPGKEREFVAAISWGDGTTNYADSVKGRLTISRDNARNTVYLQMNSLKVGDTAVYYCAAGLGAPRAVAGSFQHWGQGTQVTVSS
notes: the VHH as in m19; also called Nb-Ft-17; Nb-Ft-HA-mCherry (clone 17)
- fold enrichment in the immunoprecipitate over cells with GFP-mFerritin alone [1]: 20.9 fold
- fold enrichment in the immunoprecipitate over cells with GFP-mFerritin alone [2]: 6 fold

B3: anti-ferritin nanobody clone 1 (VHH)
VHH: QVQLQESGGGLVQAGGSLRLSCTASGLAFSSYAMGWFRQAPGKEREFVATIGWTGGTTNYADSVKGRFTISRDNARNTVYLQMNSLKVEDTAVYYCAAGLGAPTVVAGSYQHWGQGTQVTVSS
notes: One of the 17 nanobodies of CDR3 groups 6 and 26; also called Nb-Ft clone 1; Nb-Ft-1; source: crude periplasmic extract of the phage display clone (pMECS)
- binding result (human spleen ferritin [3]): binds

B4: anti-ferritin nanobody clone 10 fused to HA-tagged mCherry (VHH)
VHH: QVQLQESGGGLVQAGGSLRLSCAASGLAFSSYGMGWFRQAPGKEREFVVAIPWSGGTTNYADSVKGRFTISRDNARNTVYLQMNSLKVEDTAVYYCAAGLGAPTVVADSYQHWGQGTQVTVSS
notes: the VHH as in m12; also called Nb-Ft-10; Nb-Ft-HA-mCherry (clone 10)
- fold enrichment in the immunoprecipitate over cells with GFP-mFerritin alone [1]: 7 fold
- binding result [4]: binds

B5: anti-ferritin nanobody clone 14 (VHH)
VHH: QVQLQESGGGLVQPGGSLRLSCAASGLAFSSYGMGWFRQAPGKEREFVVAIPWSGGTTNYADSVKGRFTISRDNARNTVYLQMNSLKVEDTAVYYCAAGLGAPTVVADSYQHWGQGTQVTVSS
notes: The text calls the preparation partially purified; also called Nb-Ft clone 14; Nb-Ft-14; source: crude periplasmic extract of the phage display clone (pMECS); E. coli WK6, purified (periplasmic extract, cobalt IMAC)
- binding result (mouse liver ferritin): binds

B6: anti-ferritin nanobody clone 9 fused to HA-tagged mCherry (VHH)
VHH: QVQLQESGGGLVQAGGSLRLSCAASGLAFSSYGMGWFRQAPGKEREFVAAIRWSGGTTNYADSVKGRFTISRDNVRNTAYLQMNSLKVEDTAVYYCAAGLGAPTVVADSYQHWGQGTQVTVSS
notes: the VHH as in m11; In the functional row this id stands for the same VHH fused to the N-terminus of TRPV1; also called Nb-Ft-9; Nb-Ft-HA-mCherry (clone 9)
- fold enrichment in the immunoprecipitate over cells with GFP-mFerritin alone [1]: 4.6 fold
- binding result [4]: binds

B7: anti-ferritin nanobody clone 10 (VHH)
VHH: QVQLQESGGGLVQAGGSLRLSCAASGLAFSSYGMGWFRQAPGKEREFVVAIPWSGGTTNYADSVKGRFTISRDNARNTVYLQMNSLKVEDTAVYYCAAGLGAPTVVADSYQHWGQGTQVTVSS
notes: The text calls the preparation partially purified; also called Nb-Ft clone 10; Nb-Ft-10; source: crude periplasmic extract of the phage display clone (pMECS); E. coli WK6, purified (periplasmic extract, cobalt IMAC)
- binding result (mouse liver ferritin): binds

B8: anti-ferritin nanobody clone 6 (VHH)
VHH: QVQLQESGGGLVQAGGSLRLSCAASGLAFSSYGMGWFRQAPGKEREFVAAIGWTGGTTNYADSVKGRFIISRDNARNTVYLQMNSLKVEDTAVYYCAAGLGAPMVVVGSYQHWGQGTQVTVSS
notes: One of the 17 nanobodies of CDR3 groups 6 and 26; also called Nb-Ft clone 6; Nb-Ft-6; source: crude periplasmic extract of the phage display clone (pMECS)
- binding result (human spleen ferritin [3]): binds

B9: anti-ferritin nanobody clone 14 fused to HA-tagged mCherry (VHH)
VHH: QVQLQESGGGLVQPGGSLRLSCAASGLAFSSYGMGWFRQAPGKEREFVVAIPWSGGTTNYADSVKGRFTISRDNARNTVYLQMNSLKVEDTAVYYCAAGLGAPTVVADSYQHWGQGTQVTVSS
notes: the VHH as in m16; In the functional row this id stands for the same VHH fused to the N-terminus of TRPV1; also called Nb-Ft-14; Nb-Ft-HA-mCherry (clone 14)
- fold enrichment in the immunoprecipitate over cells with GFP-mFerritin alone [1]: 5.1 fold
- binding result [4]: binds

B10: anti-ferritin nanobody clone 7 (VHH)
VHH: QVQLQESGGGLVQAGGSLRLSCAASGLAFSSYAMGWFRQAPGKEREFVAAIMWSGGTTNYADSVKGRFTISRDNVRNTVYLQMNSLKVEDAAVYYCAAGLGAPTVVADSFQHWGQGTQVTVSS
notes: One of the 17 nanobodies of CDR3 groups 6 and 26; also called Nb-Ft clone 7; Nb-Ft-7; source: crude periplasmic extract of the phage display clone (pMECS)
- binding result (human spleen ferritin [3]): binds

B11: anti-ferritin nanobody clone 9 (VHH)
VHH: QVQLQESGGGLVQAGGSLRLSCAASGLAFSSYGMGWFRQAPGKEREFVAAIRWSGGTTNYADSVKGRFTISRDNVRNTAYLQMNSLKVEDTAVYYCAAGLGAPTVVADSYQHWGQGTQVTVSS
notes: The text calls the preparation partially purified; also called Nb-Ft clone 9; Nb-Ft-9; source: crude periplasmic extract of the phage display clone (pMECS); E. coli WK6, purified (periplasmic extract, cobalt IMAC)
- binding result (mouse liver ferritin): binds

B12: anti-ferritin nanobody clone 5 (VHH)
VHH: QVQLQESGGGLVQAGGSLRLSCAASGLAFSSYGMGWFRQAPGKEREFVASISWSGGTTNYADSVKGRLTISRDNARNTVYLQMNSLKVEDTAVYYCAAGLGAPRVVAGSYQHWGQGTQVTVSS
notes: One of the 17 nanobodies of CDR3 groups 6 and 26; also called Nb-Ft clone 5; Nb-Ft-5; source: crude periplasmic extract of the phage display clone (pMECS)
- binding result (human spleen ferritin [3]): binds

B13: anti-ferritin nanobody clone 12 (VHH)
VHH: QVQLQESGGGLVQAGGSLRLSCAASGLAFSSYGMGWFRQAPGEEREFVAAISWSGGTTNYADFVKGRFTISRDNARNTVYLQMNSLKVEDTAVYYCAAGLGAPTVVAGSYQHWGQGTQVTVSS
notes: One of the 17 nanobodies of CDR3 groups 6 and 26; also called Nb-Ft clone 12; Nb-Ft-12; source: crude periplasmic extract of the phage display clone (pMECS)
- binding result (mouse liver ferritin): binds

B14: anti-ferritin nanobody clone 3 (VHH)
VHH: QGQLQESGGGAVQAGGSLRLSCAASGLAFSSYGMGWFRQAPGKEREFVASISWTGGTTNYADSVKGRLTISRDNARNTVYLQMNSLKVEDTAVYYCAAGLGAPRVVAGSYQHWGQGTQVTVSS
notes: One of the 17 nanobodies of CDR3 groups 6 and 26; also called Nb-Ft clone 3; Nb-Ft-3; source: crude periplasmic extract of the phage display clone (pMECS)
- binding result (human spleen ferritin [3]): binds

B15: anti-ferritin nanobody clone 2 (VHH)
VHH: QVQLQESGGGLVQPGGSLRLSCAASGLAFSNYGMGWFRQAPGKEREFVSAVSWISDTTNYADSVKGRFTISRDNARNTVYLQMNSLKVEDTAVYYCAAGLGAPRVVAGSYQHWGQGTQVTVSS
notes: The text calls the preparation partially purified; also called Nb-Ft clone 2; Nb-Ft-2; source: crude periplasmic extract of the phage display clone (pMECS); E. coli WK6, purified (periplasmic extract, cobalt IMAC)
- Kd (human spleen ferritin [5]): 540 ± 200 nM

B16: anti-ferritin nanobody clone 2 fused to HA-tagged mCherry (VHH)
VHH: QVQLQESGGGLVQPGGSLRLSCAASGLAFSNYGMGWFRQAPGKEREFVSAVSWISDTTNYADSVKGRFTISRDNARNTVYLQMNSLKVEDTAVYYCAAGLGAPRVVAGSYQHWGQGTQVTVSS
notes: the VHH as in m4; In the functional rows this id stands for the same VHH fused to the N-terminus of TRPV1 (Nb-Ft-2-TRPV1^Ca2+); also called Nb-Ft-2; Nb-Ft-HA-mCherry (clone 2)
- fold enrichment in the immunoprecipitate over cells with GFP-mFerritin alone [1]: 58.1 fold
- fold enrichment in the immunoprecipitate over cells with GFP-mFerritin alone [2]: 14.5 fold

B17: anti-ferritin nanobody clone 11 (VHH)
VHH: QVQLQESGGGLVQPGGSLRLSCVATGLSFAKSWMYWVRQAPGKGLEWVAQISPSSVLIQYPDSVSGRFTVSRDNAKNTLFLQMDSLKSEDTAVYYCSTEMDGTSRGQGTQVTVSS
notes: One of the 17 nanobodies of CDR3 groups 6 and 26; also called Nb-Ft clone 11; Nb-Ft-11; source: crude periplasmic extract of the phage display clone (pMECS)
- binding result (mouse liver ferritin): binds

B18: anti-ferritin nanobody clone 4 (VHH)
VHH: QVQLQESGGGLVQPGGSLRLSCAASGLSFANSWMYWVRQAPGKGLEWVAQISPSSLLINYPDSVSGRFTVSRDNAKNTLFLQMDSLKPEDTAVYYCSTEMDGTSRGQGTQVTVSS
notes: One of the 17 nanobodies of CDR3 groups 6 and 26; also called Nb-Ft clone 4; Nb-Ft-4; source: crude periplasmic extract of the phage display clone (pMECS)
- binding result (human spleen ferritin [3]): binds

B19: anti-ferritin nanobody clone 15 (VHH)
VHH: QVQLQESGGGLVQPGGSLRLSCAASGLSFAKSWMYWVRQAPGKGLEWVAQISPSSVLIQYPDSVSGRFTVSRDNAKNTLFLQMDSLKPEDAAQYYCATDMSGTYRGQGTQVTVSS
notes: One of the 17 nanobodies of CDR3 groups 6 and 26; also called Nb-Ft clone 15; Nb-Ft-15; source: crude periplasmic extract of the phage display clone (pMECS)
- binding result (mouse liver ferritin): binds

B20: anti-ferritin nanobody clone 13 (VHH)
VHH: QVQLQESGGGLVQPGGSLRLSCVASGLSFANSWMYWVRQAPGKGLEWVAQISPSSLLINYPNSVSGRFTVSRDNAKNTLFLQMDSLKSEDTAVYYCSTGMDGTSRGQGTQVTVSS
notes: One of the 17 nanobodies of CDR3 groups 6 and 26; also called Nb-Ft clone 13; Nb-Ft-13; source: crude periplasmic extract of the phage display clone (pMECS)
- binding result (mouse liver ferritin): binds

B21: anti-ferritin nanobody clone 16 (VHH)
VHH: QVQLQESGGGLVQPGGSLRLSCAASGLSFANSWMYWVRQAPGKGLEWVAQISPSSILIQYPDSVSGRFTVSRDNAKNTLFLQMDSLKPEDTAVYYCSTEMDGTSRGQGTQVTVSS
notes: One of the 17 nanobodies of CDR3 groups 6 and 26; also called Nb-Ft clone 16; Nb-Ft-16; source: crude periplasmic extract of the phage display clone (pMECS)
- binding result (mouse liver ferritin): binds

B22: anti-ferritin nanobody clone 8 (VHH)
VHH: QVQLQESGGGLVQPGGSLRLSCAASGFSFGDTWMYWVRQAPGKDIEWVAQISPSSVLINYPDSVSGRFTVGRDNAKNTLWLQMDSLKSEDTAVYYCATKMDGASRGQGTQVTVSS
notes: One of the 17 nanobodies of CDR3 groups 6 and 26; also called Nb-Ft clone 8; Nb-Ft-8; source: crude periplasmic extract of the phage display clone (pMECS)
- binding result (mouse liver ferritin): binds
